Measurements taken from the DeepSol protein solubility set.

Assay: soluble on expression in E. coli; label from the status in PepcDB or PDB records

Row | Sequence | soluble on expression in E. coli
1 | MKVLTVFGTRPEAIKMAPLVHALEKDPHFEAKVCVTAQHREMLDQVLTLFSIVPDYDLNIMQPGQGLTEITCRILEGLKPILADFKPDVVLVHGDTTTTIATSLAAFYQRIPVGHVEAGLRTGDLYSPWPEEANRTLTGHLAMYHFAPTENSRQNLLRENIPDERIFVTGNTVIDALIWVRDRVLTSDTLQAELAEQYPFLNANKKMILVTGHRRESFGQGFEHICQALAEIAAANQNVQIVYPVHLNPNVSEPVNRILGHVENVVLIEPQDYLPFVWLMNHAWLILTDSGGIQEEAPSLGKPVLVMRETTERPEAITAGTVRLIGTDSRRIVAEVMRLLHDENEYQTMSRAHNPYGDGQSCARILQALKSYRVSL | not soluble
2 | MGSDKIHHHHHHMVEVVGVRFREAGHIYYFAPGKSEYIYNEKVLVESQQSKQLATVAIPKKTVDSDDLPEDLKPILNKATANDLEKEQKNLADAEAAKSIANEKIRAHDLKMKLVRVEYTFDRSKMIFYFTADGRIDFRELVKDLAAIFRTRIELRQIGVRDEAKILGGIGPCGRQLCCSTFLGDFMPVSIKMAKDQGLSLNPVKISGLCGRLMCCLKYENDEYEAAKKELPDYGKEVITPDGKGKVVGLNLLSRIVKVRLHGREIAADYDYEEIKEATAKVAAEKGDQNG | not soluble
3 | MAAAAAGAGSGPWAAQEKQFPPALLSFFIYNPRFGPREGQEENKILFYHPNEVEKNEKIRNVGLCEAIVQFTRTFSPSKPAKSLHTQKNRQFFNEPEENFWMVMVVRNPIIEKQSKDGKPVIEYQEEELLDKVYSSVLRQCYSMYKLFNGTFLKAMEDGGVKLLKERLEKFFHRYLQTLHLQSCDLLDIFGGISFFPLDKMTYLKIQSFINRMEESLNIVKYTAFLYNDQLIWSGLEQDDMRILYKYLTTSLFPRHIEPELAGRDSPIRAEMPGNLQHYGRFLTGPLNLNDPDAKCRFPKIFVNTDDTYEELHLIVYKAMSAAVCFMIDASVHPTLDFCRRLDSIVGPQLTVLASDICEQFNINKRMSGSEKEPQFKFIYFNHMNLAEKSTVHMRKTPSVSLTSVHPDLMKILGDINSDFTRVDEDEEIIVKAMSDYWVVGKKSDRRELYVILNQKNANLIEVNEEVKKLCATQFNNIFFLD | soluble
4 | MSLTPDPAIDEVTARVYQIPTDAPEADGTLSWSSTTLVLAEVAAGGRRGIGYTYGDGACAQLITGALAGSVTGHSALDVAARWQAMVRAMRNNGRPGLVSCAISAVDTALWDLKGKLLGLPVCRLLGMAHDSVPIYGSGGFTSYDDNATRAQLERWVHEWRIPRVKIKIGESWGSHERRDLDRIALARTVIGPDTELYVDANGGYRRKQAIRMAHAMAGHDVTWFEEPVSSDDLAGLREVRDQVSADVTAGEYGYDLAYFHRMLAADAVDCLQIDVTRCGGITDWLRAAAVAAAHNVDVSGHCAPNLHAHVATAVANLRHLEYFHDHHRIEQMFFDGALSPQGGVLRPDQQRPGFGLEFKQRDADRYRMREGHHHHHH | soluble
5 | DDFEDSLEYLEPLDHDAYIVRLNFTGENTTEPIISYMTKTHNIDVNILEADIKNTKNGSLGFLVIHIPHISEEHFKQFKHNLHEQHVNVEVLKHG | not soluble
6 | PMVALVGARNASSLGLRMARKLAAALGEAGYVVVSGLARGIDAEAHAAALGQGTVAVQAGGVDVIYPAENAGLAAEIAARGCRISEQPMGLVPQARHFPLRNRIVSGLARAVVVVEAAARSGSLITAREALDQGREVLAVPGHPFDPRAAGGNQLIREGATLVRHAADVIEAIGTAHPA | not soluble
7 | MAHHHHHHMRGWTAIRSPQLPTLHHRTVVEHTRPQKKKAKKKHGGRVRLCVWRCRCLPALAAKKTKQEGKKCVLRPTSPRRTPTRHGSLSAPFVAAPPHACSRRGAQGRRHERVGGCASGAVGRETHGTPHRKSAEETIKRGKSRKKKKTSIVIAPKSKKEGMWGVRELKRTN | soluble
8 | MAHHHHHHMVRPEYSSPPEFFYNEEEAKKYVRNSRIRDIQSQMTERAMELLLLPDSPCLLLDIGCGSGISGMTLNELDHFWIGIDISIHMLRLQNEAHLGGDMLLADMGKLMRFQPCIFDGVVSISALQWLCNWDKKDESPVSRISTFFKWLYNCLKRGARAVFQFYPDSPEQIKTLTNFAMKAGFGGGVVVDFPNSAKSKKYYLCLWAGSSLVATMPTALNDEEENIISHERRKFNKKTKKQIKKNKEWILKKKDQRRMKGLDVKRDSKYTGRKRKGRF | not soluble
9 | MLTEQQFRDEIRGFVDKMNENNFHWQLKEIGKYARETHLKTLSDGRVITSETHILYNSTYQVPTIWFNFFENNGSPLPFRTVIRDVLNISETEESEASIRSRISHYEHPFMGVLYYNIHPCNTSNIMKELNTDRSYLMSWFSVYGQQIGLKLPDRVL | not soluble
10 | MMSDRDYTLIIDKSGSMSTPDQAGGRSRWEIAQESTLALARKCEQFDPDGITVYLFSGKFKRYDDVTSAKVAQIFLENDPAGTTNLAGVLQDALNNYFQRKAAGKTKPNGETILVITDGEPDDRKAVFETIIHATRQMERDEELGISMIQVGSDAQATKFLKALDDQLQSVGAKFDICDTITLEDLEDMSLADVLMNAITDLEHHHHHH | soluble
11 | MAKKPTALIILDGFANRESEHGNAVKLANKPNFDRYYNKYPTTQIEASGLDVGLPEGQMGNSEVGHMNIGAGRIVYQSLTRINKSIEDGDFFENDVLNNAIAHVNSHDSALHIFGLLSDGGVHSHYKHLFALLELAKKQGVEKVYVHAFLDGRDVDQKSALKYIEETEAKFNELGIGQFASVSGRYYAMDRDKRWEREEKAYNAIRNFDAPTYATAKEGVEASYNEGLTDEFVVPFIVENQNDGVNDGDAVIFYNFRPDRAAQLSEIFANRAFEGFKVEQVKDLFYATFTKYNDNIDAAIVFEKVDLNNTIGEIAQNNNLTQLRIAETEKYPHVTYFMSGGRNEEFKGERRRLIDSPKVATYDLKPEMSAYEVKDALLEELNKGDLDLIILNFANPDMVGHSGMLEPTIKAIEAVDECLGEVVDKILDMDGYAIITADHGNSDQVLTDDDQPMTTHTTNPVPVIVTKEGVTLRETGRLGDLAPTLLDLLNVEQPEDMTGESLIKH | not soluble
12 | MAHHHHHHMTADARTDDGGLRRAYTRSMPAVLRPLWLLEESMRDVQVQWEEIIEGVMVEDVSFSSVRAAVLHVERLASQLKAIKQELMPRLSHFSQKEEDSEQPFLRYCSCAAKPTVNGDNSICDLAQGEQTQAARLAARVWVWGVCVGTIMNDLELLSTSLSFAASTCLLEKFAEEVRLTEASTFFLGKDEGVASPLSDSDLLLACQLLYHLFTGDDAAAEMTCHRVLSLIDDCEERDDGKECRGCILSRLVRIAECVAAEDYGALQVLMKVDFFTGVDTLCSLPPLIIFFTQMMLDTVVHRQLVQGCFQNVWRPVINVDRPARDESPSVPSEAMMNSFCSSSRLSFTTKRRLMTCCAVFRESLPPRVPWPIPEDLMDRCFRMGL | not soluble
13 | MGHHHHHHSHMATLIYVDKEIGEPGTRVAAKDVLKLESRPSIKALDGISQVLTPRFGKTYDAPSALPKATRKALGTVNRATEKSVKTNGPRKQKQPSFSAKKMTEKTVKTKSSVPASDDAYPEIEKFFPFNLLDFESFDLPEERQIAHLPLSGVPLMILDEEGELEKLFQLGPPSPVKMPSPPWECNLFAVSFKHSVDPGC | not soluble
14 | MLQDAVEDLGCELWGIECQRVGRFMTVRLFIDKDGGVTVDDCADVSRQVSAILDVEDPIADKYNLEVSSPGLDRPLFTLPQFERYIGQDIAVHLRIPVMERRKWQGKLERIEKDMITLIVDDQEQILVFGNIQKANVVAKF | not soluble
15 | MSQWYELQQLDSKFLEQVHQLYDDSFPMEIRQYLAQWLEKQDWEHAANDVSFATIRFHDLLSQLDDQYSRFSLENNFLLQHNIRKSKRNLQDNFQEDPIQMSMIIYSCLKEERKILENAQRFNQAQSGNIQSTVMLDKQKELDSKVRNVKDKVMCIEHEIKSLEDLQDEYDFKCKTLQNREHETNGVAKSDQKQEQLLLKKMYLMLDNKRKEVVHKIIELLNVTELTQNALINDELVEWKRRQQSACIGGPPNACLDQLQNWFTIVAESLQQVRQQLKKLEELEQKYTYEHDPITKNKQVLWDRTFSLFQQLIQSSFVVERQPCMPTHPQRPLVLKTGVQFTVKLRLLVKLQELNYNLKVKVLFDKDVNERNTVKGFRKFNILGTHTKVMNMEESTNGSLAAEFRHLQLKEQKNAGTRTNEGPLIVTEELHSLSFETQLCQPGLVIDLETTSLPVVVISNVSQLPSGWASILWYNMLVAEPRNLSFFLTPPCARWAQLSEVLSWQFSSVTKRGLNVDQLNMLGEKLLGPNASPDGLIPWTRFCKENINDKNFPFWLWIESILELIKKHLLPLWNDGCIMGFISKERERALLKDQQPGTFLLRFSESSREGAITFTWVERSQNGGEPDFHAVEPYTKKELSAVTFPDIIRNYKVMAAENIPENPLKYLYPNIDKDHAFGKYYSR | soluble
16 | MAVESRVTQEEIKKEPEKPIDREKTCPLLLRVFTTNNGRHHRMDEFSRGNVPSSELQIYTWMDATLKELTSLVKEVYPEARKKGTHFNFAIVFTDVKRPGYRVKEIGSTMSGRKGTDDSMTLQSQKFQIGDYLDIAITPPNRAPPTSGRMRPY | soluble
17 | MDMDREQSVQHFLDLIKKSHRGKFKIYIGMIAGVGKSYRMLQEAHELLENGVDVQIGYIETHGRAGTEALMQGLPVIPRRKIFYKGKELEEMDVDAIIRLHPEIVIVDELAHTNVEGSLNEKRWQDVMTLLDEGINVISAINIQHIESVNEEVQEITGIEVKERVPDSVLQEADEVVNIDLTAEELISRLKAGKIYRPEKIQTALDNFFRTENILQLRELALKEVALRVEKKVENEVVMGVSVGIRHEKFMACISSHEKTPRRIIRKAARLATRYNTTFVALYVQTPRESMDRIDLASQRYLLNHFKLVAELGGEVIQVQSKDILGSIVKVCRDKQISSVCMGTPNLRFPHAICSILGYRKFLNNLSQANVDLIILA | not soluble
18 | MAPDVFTVVAEPQRRRILERLRAGHASVGELVDQLALPQPTVSKHLRVLRQAGFVTCRTAAQQRIYSLHREPFDEFDAWLQPYRRLWANHLDALGRHLESKETPS | not soluble
19 | IGDWGYSVSANLTTISNKVKSLVQDGYSIIAGDKSQSYTMAGYPIGYFYGYKVAGVYQNQAEIDASPVNTLATVTPGDLKFADVNGDGKITPDDRTKIGDPTPDVTYGISLGLSYKNWELSMEMMGQGGNQIYRTWDNYNWAQFNYMEQRLDRWHGEGTSNTQPLLNTKHAINSENSEYFIEDGSFFRIRNLQLAYSFDKTLLSKIRMQALKVYVNIQNLKTWKHNTGYTPEIGGSAIAFGVDNGTYPVPAVYTFGINLTF | not soluble
20 | MQQLLAPVHAFLRCETPQTWIDVARASASLDELLIDHCNCELKAAQTAMFLLRRYALNAESGQSLLAWAKPYEEFVYHKDRDIEQFLARDVKKNELVAVLQPNQHFSFAQDLIPPLIRLIKEEFHHFEQVLELMHARQIPYRNIRAGRYAKGMMSHVTTHEKNILRDKLIVGAYIEARSCERFAKLAPYLDAELSKFYVSLLRSEARHFEDYLKLAQLVSSEDISERVAYFGEREAELIMAPDDEFHFHSGQPQAIKYSYA | not soluble
21 | MSLAHFSVLPPEINSLRMYLGAGSAPMLQAAAAWDGLAAELGTAASSFSSVTTGLTGQAWQGPASAAMAAAAAPYAGFLTTASAQAQLAAGQAKAVASVFEAAKAAIVPPAAVAANREAFLALIRSNWLGLNAPWIAAVESLYEEYWAADVAAMTGYHAGASQAAAQLPLPAGLQQFLNTLPNLGIGNQGNANLGGGNTGSGEGHHHHHH | not soluble
